Experimental data taken from patent US20210179710A1, “COMBINATION IMMUNOTHERAPY AND CHEMOTHERAPY FOR THE TREATMENT OF A HEMATOLOGICAL MALIGNANCY” (Actinium Pharmaceuticals, Inc., priority 2018, published 2021).
Where two headings read alike, the source gives them in different places.

Assays:
[1] = system: relapsed or refractory AML and CML; details: cited from earlier work
CD33 [2] = target: T1, CD33 (Homo sapiens, UniProt P20138); details: higher than M195; cited from earlier work
CD33 [3] = target: T1, CD33; details: human peripheral blood mononuclear cells as effectors, cited from earlier work
AML [4] = experiment: Phase 2 portion, monotherapy without LDAC in AML patients unfit for cytotoxic chemotherapy; format: in vivo, human
From the text: (§1) Preliminary data are available on 9 with median age 75 years (range, 65-82) and PS median 2 (0-1 in 2 patients, […], & 3 in 2 patients). Six (67%) had prior treatment for AHDs (5 MDS, 1 atypical CML). At baseline, 5 patients had ANC≥500/μL, only 2 had ANC≥1000/μL, and only 1 had platelets >50,000/μL.
The 30-day mortality rate was 33% (disease progression, acute on chronic respiratory failure, and post-traumatic intracranial hemorrhage after a fall).
Objective responses were documented in 5 of the 9 patients (56%): 2 Complete Remissions with incomplete platelet count recovery (CRp) and 3 Complete Remissions with incomplete hematologic recovery (CRi). Two patients had resistant disease.
The two patients with CRp had neutrophil recovery at Days 60 and 36. Two of the patients with CRi had not reached ANC≥500/μL when they expired from infection on days 65 and 56, and the third is at day 66+ without ANC recovery. Since patients with antecedent hematologic disorders (AHDs) may not have capacity to recover to normal neutrophil production, patients without AHDs may be more informative. Of the 3 patients without AHDs, 1 had ANC recovery at Day 36, 1 had death from infection at Day 56 without ANC recovery, and 1 is pending ANC recovery at Day 66+. […]

AML [5] = experiment: Phase 1 clinical trial, fractionated doses combined with low dose Ara-C (LDAC); format: in vivo, human; details: fractionated doses on days 1 and 8 combined with LDAC
From the text: as §1

relapsed/refractory AML = experiment: Dose escalation (MTD) in patients with relapsed/refractory AML; format: in vivo, human
Procedure: A maximum tolerated dose (MTD) of a single injection of the radiolabeled lintuzumab was determined to be 3 uCi/kg patient weight. As a split dose (e.g., 2 equal doses administered 4-7 days apart), the MTD was determined to be 2 uCi/kg per dose, or 4 uCi/kg total. […] Determination of MTD was based on the severity of the adverse effects observed at each dose level. Anti-leukemic effects included elimination of peripheral blood blasts in 13 of 19 evaluable patients. Twelve of 18 patients who were evaluable at 4 weeks following treatment had reductions in bone marrow blasts, including nine with reductions ≥50%. Three patients treated with 1 uCi/kg, 3 uCi/kg and 4 uCi/kg respectively had ≤5% blasts after therapy.

[6] = system: peripheral blood and bone marrow cells; experiment: Reactivity with peripheral blood and bone marrow cells from frozen tissues; format: binding; details: nonhuman primate and human frozen tissues
HL60 (leukemia cells) = experiment: Cytotoxicity against HL60 cell suspensions; format: cell-based
[7] = four clinical trials, native HuM195 alone
[8] = 2 μCi/kg/fraction monotherapy, preliminary
[9] = 2 equal doses administered 4-7 days apart

T1 sequence (P20138 18-364): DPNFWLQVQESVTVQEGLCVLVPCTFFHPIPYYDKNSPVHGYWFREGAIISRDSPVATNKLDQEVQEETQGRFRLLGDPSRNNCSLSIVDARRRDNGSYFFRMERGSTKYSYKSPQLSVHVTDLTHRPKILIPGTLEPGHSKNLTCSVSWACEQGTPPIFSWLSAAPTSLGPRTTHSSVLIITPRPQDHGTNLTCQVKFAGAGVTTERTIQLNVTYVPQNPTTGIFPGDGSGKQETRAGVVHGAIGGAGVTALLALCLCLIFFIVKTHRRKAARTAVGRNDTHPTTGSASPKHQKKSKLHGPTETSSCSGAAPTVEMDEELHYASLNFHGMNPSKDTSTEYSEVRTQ

In the case of “HuM195: recombinant humanized anti-CD33 monoclonal antibody”, the “single agent activity in AML” value ([1]; even at supra-saturating doses that fully blocked CD33 binding sites throughout a 4-week period) is given as “very modest activity”, the “human anti-human antibody responses” value [1, 7] is given as “not seen” and the most common toxicities [1, 7] is given as “Fever, chills, and nausea”. The “reduction in marrow blast cells” value [1, 7] was “seen in some patients”, the “binding avidity relative to M195” value (CD33 [2]) was “greater than 8 fold” and the “antibody-dependent cell-mediated cytotoxicity (ADCC)” value (CD33 [3]) was “induced antibody-dependent cell-mediated cytotoxicity”. The “antibody-dependent cell-mediated cytotoxicity (ADCC)” value (CD33 [3]; listed as lintuzumab) was “demonstrated antibody-dependent cell-mediated cytotoxicity”.
With “lintuzumab-Ac^225: Lintuzumab conjugated with Actinium-225 (Ac^225)” the 30-day mortality rate (AML [4]; 2 μCi/kg/fraction) was 33%, the “Grade >3 non-hematologic toxicities reported in ≥1 pt” value (AML [4]; 2 μCi/kg/fraction) was “pneumonia and cellulitis” and the “platelet counts >20,000/μL without transfusions” value (AML [4]; 2 μCi/kg/fraction) was “No patients reached platelet counts >20,000/μL without transfusions”. The veno-occlusive disease (AML [4]; 2 μCi/kg/fraction) was “did not occur”, the objective response rate (AML [4]; [8]) was 56% and the “objective responses (patients)” value (AML [4]; [8]) was 5 of the 9. The myelosuppression (AML [4]; 2 μCi/kg/fraction, days 1 and 8, preliminary data on 9 patients) was “seen in all evaluable patients”, the “grade 4 thrombocytopenia with marrow aplasia for >6 weeks following therapy” value (AML [4]; 2 μCi/kg/fraction, preliminary data on 9 patients) was 3 patients and the “median time to neutrophil recovery (ANC≥500/μL)” value (AML [4]; from the first dose, range 20-60) was 36 days. For the same substance, the “Complete Remissions with incomplete hematologic recovery (CRi)” value (AML [4]; of 9 patients) was 3, the “Complete Remissions with incomplete platelet count recovery (CRp)” value (AML [4]; of 9 patients) was 2 and the “patients with resistant disease” value (AML [4]; of 9 patients) was “Two”. For the same substance, the “dose at which treatment induced remissions” value (AML [5]) was “above 0.5 uCi/kg/fraction”, the “elimination of peripheral blood blasts” value (relapsed/refractory AML; 0.5 uCi/kg to 4 uCi/kg) was 13 of 19 and the “MTD, split dose, per dose” value (relapsed/refractory AML; [9]) was 2 uCi/kg per dose. The “MTD, split dose, total” value (relapsed/refractory AML; [9]) was 4 uCi/kg total, the “patients with reductions in bone marrow blasts ≥50%” value (relapsed/refractory AML; of 18 evaluable at 4 weeks) was “nine” and the “maximum tolerated dose (MTD), single injection” value (relapsed/refractory AML; single injection) was 3 uCi/kg patient weight. The “patients with ≤5% blasts after therapy” value (relapsed/refractory AML; treated with 1 uCi/kg, 3 uCi/kg and 4 uCi/kg respectively) was “Three”, the “reactivity with peripheral blood and bone marrow cells (specificity)” value [6] was “reactivity with mononuclear cells only” and the “dose at which 50% of the cells were killed (LD50)” value (HL60 (leukemia cells)) was 8 μCi per mL of cell suspension.
